Numbered stars: 1 amine (or outer) side, 2 acyl side, 3 side chain; on linkers, the order of the positions; unused ones are H or OH. * marks the point of attachment. C20 diacid = O=C(O)CCCCCCCCCCCCCCCCCCC(=O)*; C18 diacid = O=C(O)CCCCCCCCCCCCCCCCC(=O)*; γGlu = O=C(O)[C@H](CCC(=O)[*:2])N[*:1]
What was measured:
[1] = biological target: T1, human amylin 3(a) receptor (human calcitonin receptor co-expressed with RAMP-3) on BHK570/CRE-luc cells (human, UniProt P30988 25-474; O60896 24-148); test: cell-based or functional assay
T1 sequence (looked up) 1: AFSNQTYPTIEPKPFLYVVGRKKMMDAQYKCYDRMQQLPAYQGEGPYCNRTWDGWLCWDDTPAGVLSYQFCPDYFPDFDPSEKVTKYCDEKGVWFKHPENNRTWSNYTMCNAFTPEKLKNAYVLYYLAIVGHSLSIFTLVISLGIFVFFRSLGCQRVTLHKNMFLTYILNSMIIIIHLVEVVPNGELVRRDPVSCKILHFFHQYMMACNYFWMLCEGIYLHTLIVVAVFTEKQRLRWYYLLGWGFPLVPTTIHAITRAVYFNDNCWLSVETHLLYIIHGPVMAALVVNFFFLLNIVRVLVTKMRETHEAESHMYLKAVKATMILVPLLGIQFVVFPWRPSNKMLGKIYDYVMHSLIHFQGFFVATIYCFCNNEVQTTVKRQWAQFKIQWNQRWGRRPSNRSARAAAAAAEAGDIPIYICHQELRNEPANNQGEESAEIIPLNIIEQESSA
T1 sequence (looked up) 2: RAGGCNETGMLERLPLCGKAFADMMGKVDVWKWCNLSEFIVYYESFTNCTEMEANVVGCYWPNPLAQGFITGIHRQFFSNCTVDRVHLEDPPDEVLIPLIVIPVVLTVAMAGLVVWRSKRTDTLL

[2] = biological target: T2, human calcitonin receptor on BHK570/CRE-luc cells (human, UniProt P30988 25-474); test: cell-based or functional assay
T2 sequence (looked up): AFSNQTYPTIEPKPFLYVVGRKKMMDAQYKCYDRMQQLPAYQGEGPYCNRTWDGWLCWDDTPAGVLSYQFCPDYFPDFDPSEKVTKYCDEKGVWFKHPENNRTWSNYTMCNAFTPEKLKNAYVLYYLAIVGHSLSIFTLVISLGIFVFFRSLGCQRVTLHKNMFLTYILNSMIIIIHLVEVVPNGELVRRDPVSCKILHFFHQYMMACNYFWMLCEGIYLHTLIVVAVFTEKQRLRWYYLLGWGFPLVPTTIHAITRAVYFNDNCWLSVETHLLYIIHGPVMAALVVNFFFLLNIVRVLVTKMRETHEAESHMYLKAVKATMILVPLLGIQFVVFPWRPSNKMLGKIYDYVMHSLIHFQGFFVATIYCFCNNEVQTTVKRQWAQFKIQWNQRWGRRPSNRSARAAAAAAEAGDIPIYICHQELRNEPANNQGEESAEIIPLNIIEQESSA

B1: [N-terminal(C20 diacid-gGlu), des1, 9S, 23Y, 30S, 31G, 33Y]mimylin (peptide)
peptide: {C20 diacid-γGlu}-ASELSTASLGRLSAELHELATYPRTETGSGSY-NH2
SMILES: CC(C)C[C@H](NC(=O)[C@H](CO)NC(=O)[C@H](C)NC(=O)[C@@H](NC(=O)[C@H](CO)NC(=O)[C@H](CC(C)C)NC(=O)[C@H](CCC(=O)O)NC(=O)[C@H](CO)NC(=O)[C@H](C)NC(=O)CC[C@H](NC(=O)CCCCCCCCCCCCCCCCCCC(=O)O)C(=O)O)[C@@H](C)O)C(=O)NCC(=O)N[C@@H](CCCNC(=N)N)C(=O)N[C@@H](CC(C)C)C(=O)N[C@@H](CO)C(=O)N[C@@H](C)C(=O)N[C@@H](CCC(=O)O)C(=O)N[C@@H](CC(C)C)C(=O)N[C@@H](Cc1c[nH]cn1)C(=O)N[C@@H](CCC(=O)O)C(=O)N[C@@H](CC(C)C)C(=O)N[C@@H](C)C(=O)N[C@H](C(=O)N[C@@H](Cc1ccc(O)cc1)C(=O)N1CCC[C@H]1C(=O)N[C@@H](CCCNC(=N)N)C(=O)N[C@H](C(=O)N[C@@H](CCC(=O)O)C(=O)N[C@H](C(=O)NCC(=O)N[C@@H](CO)C(=O)NCC(=O)N[C@@H](CO)C(=O)N[C@@H](Cc1ccc(O)cc1)C(N)=O)[C@@H](C)O)[C@@H](C)O)[C@@H](C)O
- hAmylin-R funct. EC50 (pM), tested with HSA [1]: 81 pM
- hCTR funct. EC50 (pM), tested with HSA [2]: 42 pM

B2: [N-terminal(C20 diacid-gGlu), des1, 12H, 25H, 30T, 31G, 32T]mimylin (peptide)
peptide: {C20 diacid-γGlu}-ASELSTAALGHLSAELHELATLPHTETGTGTP-NH2
SMILES: CC(C)C[C@H](NC(=O)[C@H](C)NC(=O)[C@H](C)NC(=O)[C@@H](NC(=O)[C@H](CO)NC(=O)[C@H](CC(C)C)NC(=O)[C@H](CCC(=O)O)NC(=O)[C@H](CO)NC(=O)[C@H](C)NC(=O)CC[C@H](NC(=O)CCCCCCCCCCCCCCCCCCC(=O)O)C(=O)O)[C@@H](C)O)C(=O)NCC(=O)N[C@@H](Cc1c[nH]cn1)C(=O)N[C@@H](CC(C)C)C(=O)N[C@@H](CO)C(=O)N[C@@H](C)C(=O)N[C@@H](CCC(=O)O)C(=O)N[C@@H](CC(C)C)C(=O)N[C@@H](Cc1c[nH]cn1)C(=O)N[C@@H](CCC(=O)O)C(=O)N[C@@H](CC(C)C)C(=O)N[C@@H](C)C(=O)N[C@H](C(=O)N[C@@H](CC(C)C)C(=O)N1CCC[C@H]1C(=O)N[C@@H](Cc1c[nH]cn1)C(=O)N[C@H](C(=O)N[C@@H](CCC(=O)O)C(=O)N[C@H](C(=O)NCC(=O)N[C@H](C(=O)NCC(=O)N[C@H](C(=O)N1CCC[C@H]1C(N)=O)[C@@H](C)O)[C@@H](C)O)[C@@H](C)O)[C@@H](C)O)[C@@H](C)O
- hAmylin-R funct. EC50 (pM), tested with HSA [1]: 729 pM
- hCTR funct. EC50 (pM), tested with HSA [2]: 109 pM

B3: [N-terminal(C18 diacid-gGlu), des1, 5V, 9V, 10V, 30S, 31G]mimylin (peptide)
peptide: {C18 diacid-γGlu}-ASEVSTAVVGRLSAELHELATLPRTETGSGSP-NH2
SMILES: CC(C)C[C@H](NC(=O)[C@H](CCC(=O)O)NC(=O)[C@H](Cc1c[nH]cn1)NC(=O)[C@H](CC(C)C)NC(=O)[C@H](CCC(=O)O)NC(=O)[C@H](C)NC(=O)[C@H](CO)NC(=O)[C@H](CC(C)C)NC(=O)[C@H](CCCNC(=N)N)NC(=O)CNC(=O)[C@@H](NC(=O)[C@@H](NC(=O)[C@H](C)NC(=O)[C@@H](NC(=O)[C@H](CO)NC(=O)[C@@H](NC(=O)[C@H](CCC(=O)O)NC(=O)[C@H](CO)NC(=O)[C@H](C)NC(=O)CC[C@H](NC(=O)CCCCCCCCCCCCCCCCC(=O)O)C(=O)O)C(C)C)[C@@H](C)O)C(C)C)C(C)C)C(=O)N[C@@H](C)C(=O)N[C@H](C(=O)N[C@@H](CC(C)C)C(=O)N1CCC[C@H]1C(=O)N[C@@H](CCCNC(=N)N)C(=O)N[C@H](C(=O)N[C@@H](CCC(=O)O)C(=O)N[C@H](C(=O)NCC(=O)N[C@@H](CO)C(=O)NCC(=O)N[C@@H](CO)C(=O)N1CCC[C@H]1C(N)=O)[C@@H](C)O)[C@@H](C)O)[C@@H](C)O
- hAmylin-R funct. EC50 (pM), tested with HSA [1]: 38 pM
- hCTR funct. EC50 (pM), tested with HSA [2]: 11 pM

B4: [N-terminal(C18 diacid-gGlu), des1, 6T, 9V, 30S, 31G, 32T]mimylin (peptide)
peptide: {C18 diacid-γGlu}-ASELTTAVLGRLSAELHELATLPRTETGSGTP-NH2
- hAmylin-R funct. EC50 (pM), tested with HSA [1]: 30 pM
- hCTR funct. EC50 (pM), tested with HSA [2]: 75 pM

B5: [N-terminal(C20 diacid-gGlu), des1, 21S, 23Y, 30S, 31G, 33Y]mimylin (peptide)
peptide: {C20 diacid-γGlu}-ASELSTAALGRLSAELHELSTYPRTETGSGSY-NH2
SMILES: CC(C)C[C@H](NC(=O)[C@H](C)NC(=O)[C@H](C)NC(=O)[C@@H](NC(=O)[C@H](CO)NC(=O)[C@H](CC(C)C)NC(=O)[C@H](CCC(=O)O)NC(=O)[C@H](CO)NC(=O)[C@H](C)NC(=O)CC[C@H](NC(=O)CCCCCCCCCCCCCCCCCCC(=O)O)C(=O)O)[C@@H](C)O)C(=O)NCC(=O)N[C@@H](CCCNC(=N)N)C(=O)N[C@@H](CC(C)C)C(=O)N[C@@H](CO)C(=O)N[C@@H](C)C(=O)N[C@@H](CCC(=O)O)C(=O)N[C@@H](CC(C)C)C(=O)N[C@@H](Cc1c[nH]cn1)C(=O)N[C@@H](CCC(=O)O)C(=O)N[C@@H](CC(C)C)C(=O)N[C@@H](CO)C(=O)N[C@H](C(=O)N[C@@H](Cc1ccc(O)cc1)C(=O)N1CCC[C@H]1C(=O)N[C@@H](CCCNC(=N)N)C(=O)N[C@H](C(=O)N[C@@H](CCC(=O)O)C(=O)N[C@H](C(=O)NCC(=O)N[C@@H](CO)C(=O)NCC(=O)N[C@@H](CO)C(=O)N[C@@H](Cc1ccc(O)cc1)C(N)=O)[C@@H](C)O)[C@@H](C)O)[C@@H](C)O
- hAmylin-R funct. EC50 (pM), tested with HSA [1]: 64 pM
- hCTR funct. EC50 (pM), tested with HSA [2]: 48 pM

B6: [N-terminal(C18 diacid-gGlu), des1, 6T, 9V, 30T, 31G, 32T]mimylin (peptide)
peptide: {C18 diacid-γGlu}-ASELTTAVLGRLSAELHELATLPRTETGTGTP-NH2
- hAmylin-R funct. EC50 (pM), tested with HSA [1]: 52 pM
- hCTR funct. EC50 (pM), tested with HSA [2]: 13 pM

B7: [N-terminal(C20 diacid-gGlu), des1, 9T, 21S, 23Y, 30S, 31G]mimylin (peptide)
peptide: {C20 diacid-γGlu}-ASELSTATLGRLSAELHELSTYPRTETGSGSP-NH2
SMILES: CC(C)C[C@H](NC(=O)[C@H](CCCNC(=N)N)NC(=O)CNC(=O)[C@H](CC(C)C)NC(=O)[C@@H](NC(=O)[C@H](C)NC(=O)[C@@H](NC(=O)[C@H](CO)NC(=O)[C@H](CC(C)C)NC(=O)[C@H](CCC(=O)O)NC(=O)[C@H](CO)NC(=O)[C@H](C)NC(=O)CC[C@H](NC(=O)CCCCCCCCCCCCCCCCCCC(=O)O)C(=O)O)[C@@H](C)O)[C@@H](C)O)C(=O)N[C@@H](CO)C(=O)N[C@@H](C)C(=O)N[C@@H](CCC(=O)O)C(=O)N[C@@H](CC(C)C)C(=O)N[C@@H](Cc1c[nH]cn1)C(=O)N[C@@H](CCC(=O)O)C(=O)N[C@@H](CC(C)C)C(=O)N[C@@H](CO)C(=O)N[C@H](C(=O)N[C@@H](Cc1ccc(O)cc1)C(=O)N1CCC[C@H]1C(=O)N[C@@H](CCCNC(=N)N)C(=O)N[C@H](C(=O)N[C@@H](CCC(=O)O)C(=O)N[C@H](C(=O)NCC(=O)N[C@@H](CO)C(=O)NCC(=O)N[C@@H](CO)C(=O)N1CCC[C@H]1C(N)=O)[C@@H](C)O)[C@@H](C)O)[C@@H](C)O
- hAmylin-R funct. EC50 (pM), tested with HSA [1]: 150 pM
- hCTR funct. EC50 (pM), tested with HSA [2]: 105 pM

Reference: patent US20160272683A1 (Novo Nordisk, published 2016)
